Measurements from the supplement of paper PMC9170038.

Assays:
[1] = test system: MS2 coat protein; assay: apparent KD of MS2 coat protein, switch ON state; designed switch direction (-1 OFF switch, 1 ON switch): 1; higher = weaker reporter binding; conditions: FMN input: 0 or 200 uM; Eterna round: R93 (includes R88 designs)
Method in brief: (§1)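 Apparent KD stands for the median, per design, of fits to normalised cluster binding curves. The curves came from titrating on-chip-transcribed RNA switches on Illumina sequencing clusters with SNAP-549-labelled MS2 coat protein, twofold from 0.7 or 1.5 nM to 3 µM. Buffer was 100 mM Tris-HCl pH 7.5, 80 mM KCl, 4 mM MgCl2, without or with constant ligand.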

[2] = test system: MS2 coat protein; assay: apparent KD of MS2 coat protein, switch OFF state (with FMN for OFF switches, without FMN for ON switches); designed switch direction (-1 OFF switch, 1 ON switch): 1; higher = weaker reporter binding; conditions: FMN input: 0 or 200 uM; Eterna round: R93 (includes R88 designs)
Method in brief: as §1

AUAAAACAUGAGGAUCACCCAUGUCAAGGCUAUCAAGGAUAUAGGAAGCGUAGCGGUUGACUAGAAGGUGAGAAAU [Ragexequ]
apparent KD of MS2 coat protein [1]: 66.9 nM
apparent KD of MS2 coat protein [2]: 52.4 nM

GAAAAACAUGAGGAUCACCCAUGUGAAAACUUGGGAGGAUAUACAAAGACGAAAGUCGAAGUAGAAGGCCUAUAAG [Same State 1.4l (Mat - Mod of Eli - )]
apparent KD of MS2 coat protein [1]: 21.1 nM
apparent KD of MS2 coat protein [2]: 85.9 nM

GCUUAUCCAUGCUAGGAUAUCGGCGAGAAAACAUGAGGAUCACCCAUGUGCUUGCAUAAAAGUCACGAGAAGGAGCCUGAUGGAC [Quanletira]
apparent KD of MS2 coat protein [1]: 19.7 nM
apparent KD of MS2 coat protein [2]: 17.3 nM

AGCGAACAUGAGGAUCACCCAUGUGAAAAACAUAGAGGAUAUGUCGCAUGAGUGUAAAAGACAGAAGGCUAUCGCA [Mod of Nando]
apparent KD of MS2 coat protein [1]: 38.8 nM
apparent KD of MS2 coat protein [2]: 116 nM

AGGAAACAUGAGGAUCACCCAUGUAAGAUAAACACAGGAUAUGCGAAAAGAAACAAAGAAGCAGAAGGGUGGAGAA [75%, Ex5 sub 1, 3]
apparent KD of MS2 coat protein [1]: 19.4 nM
apparent KD of MS2 coat protein [2]: 25.1 nM

AAAAAAGAUCUAGAGGAUAUCCGAGUGGUAACAUGAGGAUCACCCAUGUGAAGAAAGGAACAUGAGGAGAAGGCUAGAUCAAAAA [JL Nando Mod 1]
apparent KD of MS2 coat protein [1]: 7.87 nM
apparent KD of MS2 coat protein [2]: 10.7 nM

AAAACACAUGAGGAUCACCCAUGUGCAAAAUUCGCAGGAUAUUCCUCAAUUAAAUGAAAGGAAGAAGGGUGAUAAA [Nob's Hobby 32 - Jieux - Same State 1]
apparent KD of MS2 coat protein [1]: 17.8 nM
apparent KD of MS2 coat protein [2]: 50.2 nM

AAAGAAAAACUAGAGGAUAUCUGAGUGGUAACAUGAGGAUCACCCAUGUGAAGAAAGGAGCAUGAGGAGAAGGCUAGAAGAAAAA [JL Nando mod 22]
apparent KD of MS2 coat protein [1]: 11.7 nM
apparent KD of MS2 coat protein [2]: 59 nM

GAAAUACAUGAGGAUCACCCAUGUUAGGUGGGUCAAGGAUAUUGAGAUAAAUAAAAAUCUCGAGAAGGUGAAUAAA [JR_SS001_Sub202]
apparent KD of MS2 coat protein [1]: 87.7 nM
apparent KD of MS2 coat protein [2]: 199 nM

GAAAAACAUGAGGAUCACCCAUGUAAGAUAAACACAGGAUAUGCGAAAAUAAAUAAAGAAGCAGAAGGGUGAAGAA [Mat - Same State 1 - Tesla mod - 73]
apparent KD of MS2 coat protein [1]: 11.1 nM
apparent KD of MS2 coat protein [2]: 26.5 nM

AGCGAACAUGAGGAUCACCCAUGUCCCGCGAAUCAAGGAUAUGGGCAGAUGAGUCCUGCGCCAGAAGGUGAGUAAA [Rigeesar]
apparent KD of MS2 coat protein [1]: 49.6 nM
apparent KD of MS2 coat protein [2]: 132 nM

AAGUCACAUGAGGAUCACCCAUGUCGUAAACGAUGAGGAUAUAGGAAAAAAAAAAAAAAACUAGAAGGUAUAACAA [SameState1-01]
apparent KD of MS2 coat protein [1]: 35 nM
apparent KD of MS2 coat protein [2]: 38.5 nM

CGAAAGGAGAGAGAGGAUAUCCAAAGGAAAACAUGAGGAUCACCCAUGUAGAAGGUAGGAGAUUGGGAGAAGGCUCAAGAGAGUA [salish99-ss2-149]
apparent KD of MS2 coat protein [1]: 25.7 nM
apparent KD of MS2 coat protein [2]: 36.3 nM

GGAAGACAUGAGGAUCACCCAUGUGGGAUUAUGGGAGGAUAUACAAAGACGAGAGUCAGAGUAGAAGGCCUAGGAG [salish99-ss1-122(!)]
apparent KD of MS2 coat protein [1]: 61.1 nM
apparent KD of MS2 coat protein [2]: 107 nM

AGAAAUAAAAGAGAGGAUAUUCAAAAAGGGACAUGAGGAUCACCCAUGUAAAAGAAAAUAAAAUGGGAGAAGGCUCUAAAUAAAG [80%, More Helter Skelter 2]
apparent KD of MS2 coat protein [1]: 86.6 nM
apparent KD of MS2 coat protein [2]: 127 nM

AAAAAACAUGAGGAUCACCCAUGUAAAAAAACAUGAGGAUAUAUAAAAAAAAAAAAAAAGAUAGAAGGCAUAAAUA [JR_SS001_Sub1201]
apparent KD of MS2 coat protein [1]: 128 nM
apparent KD of MS2 coat protein [2]: 77.4 nM

GAUAAACAUGAGGAUCACCCAUGUAGAUAUAUGGGAGGAUAUACAAAGACGAUAGUCAAAGUAGAAGGCCUAAUAG [77%, Mat - Mod of Eli - With 4 more U's]
apparent KD of MS2 coat protein [1]: 29.6 nM
apparent KD of MS2 coat protein [2]: 84 nM

AAAAAACAUGAGGAUCACCCAUGUCGAAAGACAUGAGGAUAUGUACAGACUUCGGUCUGUACAGAAGGCAUGAAAA [SS1 - 1012]
apparent KD of MS2 coat protein [1]: 114 nM
apparent KD of MS2 coat protein [2]: 79.3 nM

AAAGAAAAACUAGAGGAUAUCCGAAUGGUAACAUGAGGAUCACCCAUGUGAAGAAAGGAACAUGAGGAGAAGGCUAGAAGAAAAA [JL Nando mod 10]
apparent KD of MS2 coat protein [1]: 18.8 nM
apparent KD of MS2 coat protein [2]: 23.4 nM

AAUGAACAUGAGGAUCACCCAUGUUCUAAUAGUUGAGGAUAUAUGGGUGAAAAUAGCACAGUAGAAGGCGAGUGUA [SameState1 Malc#17]
apparent KD of MS2 coat protein [1]: 408 nM
apparent KD of MS2 coat protein [2]: 262 nM

AAAAAAAAAAGACAGGAUAUCCAAAAAAAAACAUGAGGAUCACCCAUGUAAAAAAAAAAAAAGUGGGAGAAGGGUCAAAAAAAAAA [Louisiana 4 - Jieux - Same State 2]
apparent KD of MS2 coat protein [1]: 24.9 nM
apparent KD of MS2 coat protein [2]: 38.4 nM

AAAAGACAUGAGGAUCACCCAUGUCAAAAGACAUGAGGAUAUGUACAGACUUCGGUCUGUACAGAAGGCAUAAAAA [SS1 - 1060]
apparent KD of MS2 coat protein [1]: 18.6 nM
apparent KD of MS2 coat protein [2]: 32.5 nM

AACCAACAUGAGGAUCACCCAUGUCAACCCAAGCGAGGAUAUCCGAGAAUAACAAUGGGAGGAGAAGGCGCGACCU [ss1]
apparent KD of MS2 coat protein [1]: 38.1 nM
apparent KD of MS2 coat protein [2]: 39 nM

AUACGUACGUAUGAGGAUAUCCAUAAUAAGACAUGAGGAUCACCCAUGUAAACAAAACAAUAAUGGGAGAAGGCAUACGUACGAU [SS 2 M 50]
apparent KD of MS2 coat protein [1]: 47.7 nM
apparent KD of MS2 coat protein [2]: 54.8 nM

CGAAAGUAUGCACAGGAUAUGUACAGGCUAACAUGAGGAUCACCCAUGUGAAAAUGGACCAUGUCGCAGAAGGGUGCCCUCCCGA [Mageor]
apparent KD of MS2 coat protein [1]: 22.1 nM
apparent KD of MS2 coat protein [2]: 40.2 nM

AACAAUCUAUCUGAGGAUAUCAUGACAAAGACAUGAGGAUCACCCAUGUACCAGGAAACUGGUUAUGAGAAGGCAGAUAGAUUGA [SS2: 1117]
apparent KD of MS2 coat protein [1]: 11.5 nM
apparent KD of MS2 coat protein [2]: 18.8 nM

AUGAAUAGCAUCGAGGAUAUCCAGUCAUGAACAUGAGGAUCACCCAUGUAAGAGAGAGUAUAAUGGGAGAAGGCGAGUAAUCGAU [JR_SS002_Sub1703]
apparent KD of MS2 coat protein [1]: 40.3 nM
apparent KD of MS2 coat protein [2]: 105 nM

AGGAAACAUGAGGAUCACCCAUGUAUAAAAUAGGGAGGAUAUACUAAGACGAAAGUCAUAGUAGAAGGUCCAAAAA [76%, Meechl, 13]
apparent KD of MS2 coat protein [1]: 17.9 nM
apparent KD of MS2 coat protein [2]: 23.4 nM

GAGGACAUAGUACAGGAUAUAUGAAUAGUCACAUGAGGAUCACCCAUGUGCAUUUAUAUGCGCACAUAGAAGGGUGGUAGUUAUC [SameState2 Malc#28]
apparent KD of MS2 coat protein [1]: 155 nM
apparent KD of MS2 coat protein [2]: 67 nM
